Laboratory results from IntAct's records for PubMed 31515488.

B1: Protein FAM9B (Homo sapiens), Q8IZU0 (parent)
chain: MAAWGKKHAGKDPVRDECEERNRFTETREEDVTDEHGEREPFAETDEHTGANTKKPEDTAEDLTAKRKRMKMDKTCSKTKNKSKHALRKKQLKRQKRDYIHSLKLLNVLEEYITDEQKEEEEEEGEEEELIRIFQEQQKKWQQYRSVRRERLKEMKLLRDQFVKALEDFEDLCDRVFSDEDSELDN
B2: Tuftelin-interacting protein 11 (Homo sapiens), Q9UBB9 (parent)
chain: MSLSHLYRDGEGRIDDDDDERENFEITDWDLQNEFNPNRQRHWQTKEEATYGVWAERDSDDERPSFGGKRARDYSAPVNFISAGLKKGAAEEAELEDSDDEEKPVKQDDFPKDFGPRKLKTGGNFKPSQKGFAGGTKSFMDFGSWERHTKGIGQKLLQKMGYVPGRGLGKNAQGIINPIEAKQRKGKGAVGAYGSERTTQSMQDFPVVDSEEEAEEEFQKELSQWRKDPSGSKKKPKYSYKTVEELKAKGRISKKLTAPQKELSQVKVIDMTGREQKVYYSYSQISHKHNVPDDGLPLQSQQLPQSGKEAKAPGFALPELEHNLQLLIDLTEQEIIQNDRQLQYERDMVVNLFHELEKMTEVLDHEERVISNLSKVLEMVEECERRMQPDCSNPLTLDECARIFETLQDKYYEEYRMSDRVDLAVAIVYPLMKEYFKEWDPLKDCTYGTEIISKWKSLLENDQLLSHGGQDLSADAFHRLIWEVWMPFVRNIVTQWQPRNCDPMVDFLDSWVHIIPVWILDNILDQLIFPKLQKEVENWNPLTDTVPIHSWIHPWLPLMQARLEPLYSPIRSKLSSALQKWHPSDSSAKLILQPWKDVFTPGSWEAFMVKNIVPKLGMCLGELVINPHQQHMDAFYWVIDWEGMISVSSLVGLLEKHFFPKWLQVLCSWLSNSPNYEEITKWYLGWKSMFSDQVLAHPSVKDKFNEALDIMNRAVSSNVGAYMQPGARENIAYLTHTERRKDFQYEAMQERREAENMAQRGIGVAASSVPMNFKDLIETKAEEHNIVFMPVIGKRHEGKQLYTFGRIVIYIDRGVVFVQGEKTWVPTSLQSLIDMAK
partner: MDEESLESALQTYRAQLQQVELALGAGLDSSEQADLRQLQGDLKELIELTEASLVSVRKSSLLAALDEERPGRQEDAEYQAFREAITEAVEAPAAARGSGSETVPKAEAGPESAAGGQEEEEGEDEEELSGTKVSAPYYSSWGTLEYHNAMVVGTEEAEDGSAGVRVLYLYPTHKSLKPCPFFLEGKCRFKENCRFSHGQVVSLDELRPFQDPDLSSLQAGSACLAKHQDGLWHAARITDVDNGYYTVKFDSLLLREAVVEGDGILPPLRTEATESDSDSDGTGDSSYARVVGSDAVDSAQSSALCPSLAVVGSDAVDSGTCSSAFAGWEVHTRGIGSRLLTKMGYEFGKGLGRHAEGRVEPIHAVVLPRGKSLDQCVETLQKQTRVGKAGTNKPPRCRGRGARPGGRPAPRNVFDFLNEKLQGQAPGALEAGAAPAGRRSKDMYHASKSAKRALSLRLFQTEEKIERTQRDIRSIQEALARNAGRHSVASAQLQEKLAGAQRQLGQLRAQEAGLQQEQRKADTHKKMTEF
B3: Centrosomal protein of 55 kDa (Homo sapiens), Q53EZ4 (parent)
chain: MSSRSTKDLIKSKWGSKPSNSKSETTLEKLKGEIAHLKTSVDEITSGKGKLTDKERHRLLEKIRVLEAEKEKNAYQLTEKDKEIQRLRDQLKARYSTTTLLEQLEETTREGERREQVLKALSEEKDVLKQQLSAATSRIAELESKTNTLRLSQTVAPNCFNSSINNIHEMEIQLKDALEKNQQWLVYDQQREVYVKGLLAKIFELEKKTETAAHSLPQQTKKPESEGYLQEEKQKCYNDLLASAKKDLEVERQTITQLSFELSEFRRKYEETQKEVHNLNQLLYSQRRADVQHLEDDRHKTEKIQKLREENDIARGKLEEEKKRSEELLSQVQFLYTSLLKQQEEQTRVALLEQQMQACTLDFENEKLDRQHVQHQLHVILKELRKARNQITQLESLKQLHEFAITEPLVTFQGETENREKVAASPKSPTAALNESLVECPKCNIQYPATEHRDLLVHVEYCSK
partner: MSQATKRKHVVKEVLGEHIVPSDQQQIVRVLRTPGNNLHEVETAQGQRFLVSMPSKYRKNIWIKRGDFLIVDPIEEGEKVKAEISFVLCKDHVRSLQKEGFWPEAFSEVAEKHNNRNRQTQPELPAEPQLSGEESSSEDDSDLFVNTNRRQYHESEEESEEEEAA
B4: Keratin, type I cuticular Ha3-II (Homo sapiens), Q14525 (parent)
chain: MPYNFCLPSLSCRTSCSSRPCVPPSCHGYTLPGACNIPANVSNCNWFCEGSFNGSEKETMQFLNDRLASYLEKVRQLERDNAELENLIRERSQQQEPLLCPSYQSYFKTIEELQQKILCSKSENARLVVQIDNAKLAADDFRTKYQTEQSLRQLVESDINSLRRILDELTLCRSDLEAQMESLKEELLSLKQNHEQEVNTLRCQLGDRLNVEVDAAPAVDLNQVLNETRNQYEALVETNRREVEQWFATQTEELNKQVVSSSEQLQSYQAEIIELRRTVNALEIELQAQHNLRYSLENTLTESEARYSSQLSQVQSLITNVESQLAEIRSDLERQNQEYQVLLDVRARLECEINTYRSLLESEDCKLPSNPCATTNACEKPIGSCVTNPCGPRSRCGPCNTFGY
B5: Splicing factor 45 (Homo sapiens), Q96I25 (parent)
chain: MSLYDDLGVETSDSKTEGWSKNFKLLQSQLQVKKAALTQAKSQRTKQSTVLAPVIDLKRGGSSDDRQIVDTPPHVAAGLKDPVPSGFSAGEVLIPLADEYDPMFPNDYEKVVKRQREERQRQRELERQKEIEEREKRRKDRHEASGFARRPDPDSDEDEDYERERRKRSMGGAAIAPPTSLVEKDKELPRDFPYEEDSRPRSQSSKAAIPPPVYEEQDRPRSPTGPSNSFLANMGGTVAHKIMQKYGFREGQGLGKHEQGLSTALSVEKTSKRGGKIIVGDATEKDASKKSDSNPLTEILKCPTKVVLLRNMVGAGEVDEDLEVETKEECEKYGKVGKCVIFEIPGAPDDEAVRIFLEFERVESAIKAVVDLNGRYFGGRVVKACFYNLDKFRVLDLAEQV
partner: B3 chain
B6: Isoform 1 of Myotubularin-related protein 9 (Homo sapiens), Q96QG7-1 (parent)
chain: MEFAELIKTPRVDNVVLHRPFYPAVEGTLCLTGHHLILSSRQDNTEELWLLHSNIDAIDKRFVGSLGTIIIKCKDFRIIQLDIPGMEECLNIASSIEALSTLDSITLMYPFFYRPMFEVIEDGWHSFLPEQEFELYSSATSEWRLSYVNKEFAVCPSYPPIVTVPKSIDDEALRKVATFRHGGRFPVLSYYHKKNGMVIMRSGQPLTGTNGRRCKEDEKLINATLRAGKRGYIIDTRSLNVAQQTRAKGGGFEQEAHYPQWRRIHKSIERYHILQESLIKLVEACNDQTHNMDRWLSKLEASNWLTHIKEILTTACLAAQCIDREGASILIHGTEGTDSTLQVTSLAQIILEPRSRTIRGFEALIEREWLQAGHPFQQRCAQSAYCNTKQKWEAPVFLLFLDCVWQILRQFPCSFEFNENFLIMLFEHAYASQFGTFLGNNESERCKLKLQQKTMSLWSWVNQPSELSKFTNPLFEANNLVIWPSVAPQSLPLWEGIFLRWNRSSKYLDEAYEEMVNIIEYNKELQAKVNILRRQLAELETEDGMQESP
partner: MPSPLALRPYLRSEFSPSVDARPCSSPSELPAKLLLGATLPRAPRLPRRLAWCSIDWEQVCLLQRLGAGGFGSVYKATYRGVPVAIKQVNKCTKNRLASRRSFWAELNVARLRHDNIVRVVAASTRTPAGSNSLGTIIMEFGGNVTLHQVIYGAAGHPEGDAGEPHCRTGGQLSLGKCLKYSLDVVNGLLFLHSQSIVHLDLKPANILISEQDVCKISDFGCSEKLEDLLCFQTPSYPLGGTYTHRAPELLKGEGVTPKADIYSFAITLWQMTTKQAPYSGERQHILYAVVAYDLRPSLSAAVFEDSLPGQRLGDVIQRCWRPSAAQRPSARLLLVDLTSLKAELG
B7: Protein LDOC1 (Homo sapiens), O95751 (parent)
chain: MVDELVLLLHALLMRHRALSIENSQLMEQLRLLVCERASLLRQVRPPSCPVPFPETFNGESSRLPEFIVQTASYMLVNENRFCNDAMKVAFLISLLTGEAEEWVVPYIEMDSPILGDYRAFLDEMKQCFGWDDDEDDDDEEEEDDY
partner: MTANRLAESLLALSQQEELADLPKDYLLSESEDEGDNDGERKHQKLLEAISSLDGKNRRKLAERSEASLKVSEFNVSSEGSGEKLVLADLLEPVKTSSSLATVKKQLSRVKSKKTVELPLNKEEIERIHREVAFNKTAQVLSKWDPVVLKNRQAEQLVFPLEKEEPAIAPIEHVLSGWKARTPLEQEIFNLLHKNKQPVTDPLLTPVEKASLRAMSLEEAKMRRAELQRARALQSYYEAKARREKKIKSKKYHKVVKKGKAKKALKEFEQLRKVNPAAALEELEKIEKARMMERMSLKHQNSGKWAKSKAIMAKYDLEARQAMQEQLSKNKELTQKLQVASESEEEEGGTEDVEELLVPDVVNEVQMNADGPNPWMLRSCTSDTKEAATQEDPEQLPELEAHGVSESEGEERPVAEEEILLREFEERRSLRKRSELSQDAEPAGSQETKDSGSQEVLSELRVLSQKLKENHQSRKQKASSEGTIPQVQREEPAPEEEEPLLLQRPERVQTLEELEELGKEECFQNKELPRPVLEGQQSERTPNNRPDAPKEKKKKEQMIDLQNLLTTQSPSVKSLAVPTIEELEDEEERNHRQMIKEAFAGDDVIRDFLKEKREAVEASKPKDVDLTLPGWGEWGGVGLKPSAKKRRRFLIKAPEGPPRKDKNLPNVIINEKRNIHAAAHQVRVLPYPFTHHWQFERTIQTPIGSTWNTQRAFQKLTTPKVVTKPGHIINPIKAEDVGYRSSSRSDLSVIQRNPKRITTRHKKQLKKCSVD
B8: EF-hand domain-containing protein 1 (Homo sapiens), Q5JVL4 (parent)
chain: MVSNPVHGLPFLPGTSFKDSTKTAFHRSQTLSYRNGYAIVRRPTVGIGGDRLQFNQLSQAELDELASKAPVLTYGQPKQAPPADFIPAHVAFDKKVLKFDAYFQEDVPMSTEEQYRIRQVNIYYYLEDDSMSVIEPVVENSGILQGKLIKRQRLAKNDRGDHYHWKDLNRGINITIYGKTFRVVDCDQFTQVFLESQGIELNPPEKMALDPYTELRKQPLRKYVTPSDFDQLKQFLTFDKQVLRFYAIWDDTDSMYGECRTYIIHYYLMDDTVEIREVHERNDGRDPFPLLMNRQRVPKVLVENAKNFPQCVLEISDQEVLEWYTAKDFIVGKSLTILGRTFFIYDCDPFTRRYYKEKFGITDLPRIDVSKREPPPVKQELPPYNGFGLVEDSAQNCFALIPKAPKKDVIKMLVNDNKVLRYLAVLESPIPEDKDRRFVFSYFLATDMISIFEPPVRNSGIIGGKYLGRTKVVKPYSTVDNPVYYGPSDFFIGAVIEVFGHRFIILDTDEYVLKYMESNAAQYSPEALASIQNHVRKREAPAPEAESKQTEKDPGVQELEALIDTIQKQLKDHSCKDNIREAFQIYDKEASGYVDRDMFFKICESLNVPVDDSLVKELIRMCSHGEGKINYYNFVRAFSN

Variants of: B1
Conditions: with dapk2_human DAPK2, Q9UIK4
dapk2_human DAPK2, Q9UIK4, sequence (Q9UIK4 whole entry, looked up): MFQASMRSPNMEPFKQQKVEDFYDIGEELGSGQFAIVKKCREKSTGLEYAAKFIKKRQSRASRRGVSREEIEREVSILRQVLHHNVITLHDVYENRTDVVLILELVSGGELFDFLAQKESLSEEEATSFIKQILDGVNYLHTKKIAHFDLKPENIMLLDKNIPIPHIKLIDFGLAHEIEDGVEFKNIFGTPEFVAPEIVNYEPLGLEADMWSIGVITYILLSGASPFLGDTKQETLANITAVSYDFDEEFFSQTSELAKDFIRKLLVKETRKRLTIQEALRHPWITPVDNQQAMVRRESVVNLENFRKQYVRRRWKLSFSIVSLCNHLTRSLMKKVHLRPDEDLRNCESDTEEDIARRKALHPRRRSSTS

Row | effect of a mutation on the interaction | Variant
1 | with no effect | R23H

Variants of: B1
Conditions: with tr61b_human TRMT61B

Row | effect of a mutation on the interaction | Variant
2 | with no effect | R23H

Variants of: B1
Conditions: with pin4_human PIN4, Q9Y237
pin4_human PIN4, Q9Y237, sequence (Q9Y237 whole entry): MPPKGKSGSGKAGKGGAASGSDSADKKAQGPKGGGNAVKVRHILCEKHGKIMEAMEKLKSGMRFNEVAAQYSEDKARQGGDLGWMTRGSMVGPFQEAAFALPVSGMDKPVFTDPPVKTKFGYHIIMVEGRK

Row | effect of a mutation on the interaction | Variant
3 | with no effect | R23H

Variants of: B1
Conditions: with cc106_human CCDC106, Q9BWC9
cc106_human CCDC106, Q9BWC9, sequence (Q9BWC9 whole entry): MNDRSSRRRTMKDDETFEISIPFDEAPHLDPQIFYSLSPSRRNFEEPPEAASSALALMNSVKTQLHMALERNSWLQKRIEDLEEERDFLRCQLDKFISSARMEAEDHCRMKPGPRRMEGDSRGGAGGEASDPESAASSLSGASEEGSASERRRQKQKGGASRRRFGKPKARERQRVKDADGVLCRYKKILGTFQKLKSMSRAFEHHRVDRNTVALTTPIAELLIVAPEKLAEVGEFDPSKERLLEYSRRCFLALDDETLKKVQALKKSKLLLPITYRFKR

Row | effect of a mutation on the interaction | Variant
4 | with no effect | R23H

Variants of: B1
Conditions: with eftu_human TUFM

Row | effect of a mutation on the interaction | Variant
5 | with no effect | R23H

Variants of: B1
Conditions: with xrcc4_human XRCC4, Q13426
xrcc4_human XRCC4, Q13426, sequence (Q13426 whole entry): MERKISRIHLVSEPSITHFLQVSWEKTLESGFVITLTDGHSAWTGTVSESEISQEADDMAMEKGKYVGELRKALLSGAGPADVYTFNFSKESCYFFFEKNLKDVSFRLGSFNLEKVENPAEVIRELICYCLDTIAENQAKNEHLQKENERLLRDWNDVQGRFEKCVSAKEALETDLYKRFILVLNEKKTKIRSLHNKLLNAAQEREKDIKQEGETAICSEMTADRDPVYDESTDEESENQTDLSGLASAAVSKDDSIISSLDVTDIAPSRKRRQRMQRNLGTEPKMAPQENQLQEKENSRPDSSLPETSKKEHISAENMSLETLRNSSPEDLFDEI

Row | effect of a mutation on the interaction | Variant
6 | with no effect | R23H

Variants of: B1
Conditions: with daxx_human DAXX

Row | effect of a mutation on the interaction | Variant
7 | with no effect | R23H

Variants of: B2
Conditions: with zgpat_human ZGPAT

Row | effect of a mutation on the interaction | Variant
8 | with no effect | R8Q
9 | with no effect | S688L

Variants of: B3
Conditions: with eif1a_human EIF1AD

Row | effect of a mutation on the interaction | Variant
10 | with no effect | R348K
11 | with no effect | C236R
12 | with no effect | H57Q
13 | with no effect | A244P

Variants of: B4
Conditions: with KRT79, Q5XKE5
KRT79, Q5XKE5, sequence (Q5XKE5 whole entry): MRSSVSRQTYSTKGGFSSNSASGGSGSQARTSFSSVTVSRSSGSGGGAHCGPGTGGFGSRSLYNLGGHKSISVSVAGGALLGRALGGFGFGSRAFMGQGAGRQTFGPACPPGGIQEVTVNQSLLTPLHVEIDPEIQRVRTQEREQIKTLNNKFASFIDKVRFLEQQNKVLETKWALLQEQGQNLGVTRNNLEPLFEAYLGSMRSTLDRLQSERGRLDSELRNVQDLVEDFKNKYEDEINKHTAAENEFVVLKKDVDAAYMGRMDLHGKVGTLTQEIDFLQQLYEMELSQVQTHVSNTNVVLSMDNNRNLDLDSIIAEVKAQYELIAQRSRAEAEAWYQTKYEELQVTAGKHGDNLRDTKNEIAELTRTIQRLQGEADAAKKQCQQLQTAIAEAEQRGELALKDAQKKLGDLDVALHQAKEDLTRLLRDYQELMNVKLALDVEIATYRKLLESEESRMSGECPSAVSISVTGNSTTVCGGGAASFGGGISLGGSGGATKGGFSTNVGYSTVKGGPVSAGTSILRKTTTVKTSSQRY

Row | effect of a mutation on the interaction | Variant
14 | with no effect | Y294D

Variants of: B4
Conditions: with k2c4_human KRT4, P19013
k2c4_human KRT4, P19013, sequence (P19013 whole entry): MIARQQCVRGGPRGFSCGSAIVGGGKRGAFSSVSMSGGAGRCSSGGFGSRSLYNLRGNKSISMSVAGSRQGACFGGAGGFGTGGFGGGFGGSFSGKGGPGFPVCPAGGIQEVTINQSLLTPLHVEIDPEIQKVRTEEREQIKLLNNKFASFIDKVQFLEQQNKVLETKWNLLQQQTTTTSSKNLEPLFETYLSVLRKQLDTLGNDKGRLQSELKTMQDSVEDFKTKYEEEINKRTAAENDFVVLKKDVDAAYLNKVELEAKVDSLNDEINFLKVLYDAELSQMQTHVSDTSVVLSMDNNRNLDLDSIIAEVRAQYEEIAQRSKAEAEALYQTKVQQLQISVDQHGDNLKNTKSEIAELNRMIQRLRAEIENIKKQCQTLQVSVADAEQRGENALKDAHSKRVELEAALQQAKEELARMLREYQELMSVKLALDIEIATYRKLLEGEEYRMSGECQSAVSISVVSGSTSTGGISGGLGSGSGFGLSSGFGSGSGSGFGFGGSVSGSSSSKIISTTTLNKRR

Row | effect of a mutation on the interaction | Variant
15 | disrupting interaction strength | R66H
16 | with no effect | I318V
17 | with no effect | Q223R
18 | with no effect | E85K

Variants of: B5
Conditions: with cep55_human CEP55, Q53EZ4

Row | effect of a mutation on the interaction | Variant
19 | with no effect | T224I

Variants of: B6
Conditions: with mos_human MOS

Row | effect of a mutation on the interaction | Variant
20 | with no effect | F127I

Variants of: B6
Conditions: with mos_human MOS
Remark: another data set of the same source

Row | effect of a mutation on the interaction | Variant
21 | with no effect | S126C

Variants of: B7
Conditions: with ut14a_human UTP14A

Row | effect of a mutation on the interaction | Variant
22 | with no effect | L12H

Variants of: B8
Conditions: with itf2_human TCF4, P15884
itf2_human TCF4, P15884, sequence (P15884 whole entry): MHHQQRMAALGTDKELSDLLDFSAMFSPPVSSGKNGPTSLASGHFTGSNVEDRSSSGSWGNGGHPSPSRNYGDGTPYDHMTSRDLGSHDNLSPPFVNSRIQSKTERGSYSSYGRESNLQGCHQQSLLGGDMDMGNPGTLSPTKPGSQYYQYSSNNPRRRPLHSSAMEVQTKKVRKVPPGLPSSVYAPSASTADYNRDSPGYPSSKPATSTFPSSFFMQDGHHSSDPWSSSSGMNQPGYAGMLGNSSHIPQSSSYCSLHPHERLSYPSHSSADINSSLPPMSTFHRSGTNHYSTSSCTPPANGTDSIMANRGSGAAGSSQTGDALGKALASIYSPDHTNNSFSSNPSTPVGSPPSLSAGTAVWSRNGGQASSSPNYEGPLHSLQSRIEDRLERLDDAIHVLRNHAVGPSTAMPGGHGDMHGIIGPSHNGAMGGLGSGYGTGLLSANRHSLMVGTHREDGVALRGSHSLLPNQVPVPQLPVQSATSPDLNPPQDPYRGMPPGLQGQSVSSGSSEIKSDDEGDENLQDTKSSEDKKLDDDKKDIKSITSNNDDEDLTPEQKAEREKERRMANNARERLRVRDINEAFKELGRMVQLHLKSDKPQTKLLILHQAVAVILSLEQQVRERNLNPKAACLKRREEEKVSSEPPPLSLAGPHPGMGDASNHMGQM

Row | effect of a mutation on the interaction | Variant
23 | with no effect | R159W
24 | with no effect | Y102C
25 | with no effect | F229L

Variants of: B8
Conditions: with ikzf3_human IKZF3, Q9UKT9
ikzf3_human IKZF3, Q9UKT9, sequence (Q9UKT9 whole entry): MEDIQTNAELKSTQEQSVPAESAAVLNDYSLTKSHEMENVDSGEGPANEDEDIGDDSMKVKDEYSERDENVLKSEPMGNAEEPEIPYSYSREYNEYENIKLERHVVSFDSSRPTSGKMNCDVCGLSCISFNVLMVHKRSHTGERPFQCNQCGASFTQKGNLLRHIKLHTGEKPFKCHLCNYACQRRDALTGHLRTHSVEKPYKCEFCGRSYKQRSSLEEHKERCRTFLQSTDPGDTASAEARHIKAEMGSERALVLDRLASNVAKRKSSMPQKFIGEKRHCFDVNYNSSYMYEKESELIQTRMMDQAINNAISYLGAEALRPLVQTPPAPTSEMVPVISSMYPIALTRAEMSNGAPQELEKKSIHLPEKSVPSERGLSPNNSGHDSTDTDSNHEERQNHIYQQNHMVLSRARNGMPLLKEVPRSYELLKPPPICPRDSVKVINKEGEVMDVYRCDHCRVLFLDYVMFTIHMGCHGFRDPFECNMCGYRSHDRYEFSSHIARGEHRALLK

Row | effect of a mutation on the interaction | Variant
26 | with no effect | R159W
27 | with no effect | Y102C
28 | with no effect | F229L
